Data published in US6323001A, “Increasing the trehalose content of organisms by transforming them with combinations of the structural genes for trehalose synthase” (BTG International Ltd., priority 1994, dated 2001).

Columns and labels:
Format in all cases: biochemical, baker's yeast
[1] = biological target: T1, Tre6Pase activity of intact trehalose synthase (Saccharomyces cerevisiae, UniProt P31688); test: Tre6Pase assay of intact trehalose synthase
T1 construct: Intact trehalose synthase was purified from commercial baker's yeast; made in house; host or cells: commercial baker's yeast (native enzyme purified, not recombinant)
T1 sequence (P31688 1-896): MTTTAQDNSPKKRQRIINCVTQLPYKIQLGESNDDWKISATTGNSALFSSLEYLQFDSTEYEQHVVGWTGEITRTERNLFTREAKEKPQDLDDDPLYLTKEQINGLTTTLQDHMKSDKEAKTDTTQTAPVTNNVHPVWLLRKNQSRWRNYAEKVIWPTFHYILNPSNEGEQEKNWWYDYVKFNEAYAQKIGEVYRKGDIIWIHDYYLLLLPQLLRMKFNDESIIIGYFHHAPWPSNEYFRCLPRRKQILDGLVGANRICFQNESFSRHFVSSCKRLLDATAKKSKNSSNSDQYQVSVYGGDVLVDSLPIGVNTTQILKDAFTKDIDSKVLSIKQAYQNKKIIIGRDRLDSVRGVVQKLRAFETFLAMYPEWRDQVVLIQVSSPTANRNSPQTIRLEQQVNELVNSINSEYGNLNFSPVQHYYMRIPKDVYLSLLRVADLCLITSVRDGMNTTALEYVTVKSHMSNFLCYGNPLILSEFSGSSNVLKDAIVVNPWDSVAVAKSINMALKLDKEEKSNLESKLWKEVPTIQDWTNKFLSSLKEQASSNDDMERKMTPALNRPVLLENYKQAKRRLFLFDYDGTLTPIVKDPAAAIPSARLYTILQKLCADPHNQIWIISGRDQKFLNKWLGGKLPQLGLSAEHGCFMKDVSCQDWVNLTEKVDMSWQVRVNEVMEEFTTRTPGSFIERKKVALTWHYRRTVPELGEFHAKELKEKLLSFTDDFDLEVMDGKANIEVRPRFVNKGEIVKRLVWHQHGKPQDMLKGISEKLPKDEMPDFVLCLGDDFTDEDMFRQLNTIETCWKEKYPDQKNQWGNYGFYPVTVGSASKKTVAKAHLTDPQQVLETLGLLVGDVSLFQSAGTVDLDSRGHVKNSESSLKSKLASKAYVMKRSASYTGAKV
T1 sequence (Q00764 1-495 partner): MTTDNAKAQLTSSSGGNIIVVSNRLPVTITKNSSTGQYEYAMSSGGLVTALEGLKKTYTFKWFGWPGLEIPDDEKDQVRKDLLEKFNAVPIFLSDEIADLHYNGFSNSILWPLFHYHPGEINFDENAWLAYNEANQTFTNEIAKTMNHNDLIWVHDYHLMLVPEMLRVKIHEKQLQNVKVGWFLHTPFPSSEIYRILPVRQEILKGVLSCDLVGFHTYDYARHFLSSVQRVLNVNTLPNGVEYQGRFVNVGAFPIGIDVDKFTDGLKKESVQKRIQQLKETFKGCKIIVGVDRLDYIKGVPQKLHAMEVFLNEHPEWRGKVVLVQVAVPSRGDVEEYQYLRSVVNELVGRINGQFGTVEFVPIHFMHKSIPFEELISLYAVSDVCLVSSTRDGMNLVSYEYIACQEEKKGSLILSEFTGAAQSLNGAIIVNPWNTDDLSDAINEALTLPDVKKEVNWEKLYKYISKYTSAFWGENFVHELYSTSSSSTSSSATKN
T1 sequence (P38427 1-1098 partner): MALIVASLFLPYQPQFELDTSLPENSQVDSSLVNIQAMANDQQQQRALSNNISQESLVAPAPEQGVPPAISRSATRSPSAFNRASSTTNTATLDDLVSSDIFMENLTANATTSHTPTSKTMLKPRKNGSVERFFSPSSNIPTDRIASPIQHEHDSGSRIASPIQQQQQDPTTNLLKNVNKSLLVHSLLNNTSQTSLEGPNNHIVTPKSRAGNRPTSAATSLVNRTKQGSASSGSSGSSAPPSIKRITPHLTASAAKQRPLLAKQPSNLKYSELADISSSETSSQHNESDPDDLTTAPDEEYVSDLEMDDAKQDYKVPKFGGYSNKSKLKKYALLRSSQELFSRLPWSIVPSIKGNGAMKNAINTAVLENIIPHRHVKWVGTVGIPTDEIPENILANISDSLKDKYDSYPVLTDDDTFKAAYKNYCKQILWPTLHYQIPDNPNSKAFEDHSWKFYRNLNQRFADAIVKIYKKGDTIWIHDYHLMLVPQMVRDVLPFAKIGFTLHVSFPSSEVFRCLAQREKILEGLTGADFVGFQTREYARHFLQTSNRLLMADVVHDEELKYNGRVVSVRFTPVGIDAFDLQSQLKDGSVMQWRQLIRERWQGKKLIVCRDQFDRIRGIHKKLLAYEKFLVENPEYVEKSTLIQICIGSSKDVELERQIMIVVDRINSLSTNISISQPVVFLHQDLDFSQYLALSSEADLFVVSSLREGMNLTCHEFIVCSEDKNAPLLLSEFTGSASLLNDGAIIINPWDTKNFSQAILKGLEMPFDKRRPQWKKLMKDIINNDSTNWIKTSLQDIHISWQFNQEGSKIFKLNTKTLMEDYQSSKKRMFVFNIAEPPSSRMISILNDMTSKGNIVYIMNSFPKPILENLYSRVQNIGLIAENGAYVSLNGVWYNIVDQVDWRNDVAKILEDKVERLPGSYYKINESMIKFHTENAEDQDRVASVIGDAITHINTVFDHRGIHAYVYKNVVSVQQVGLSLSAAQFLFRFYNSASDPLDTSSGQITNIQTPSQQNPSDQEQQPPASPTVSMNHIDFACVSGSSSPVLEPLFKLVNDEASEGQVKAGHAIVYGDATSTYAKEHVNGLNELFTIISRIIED
Protocol: (§1) With microbial materials, Tre6Pase and Tre6P synthase standard assays and other kinetic measurements were made as described by Londesborough & Vuorio [(1991) loc. cit.] except that the standard Tre6P synthase assay mixture contained 5 mM F6P unless stated otherwise.
(§2) In one experiment intact trehalose synthase (0.28 Tre6P synthase units, ≈9.4 μg) was incubated with or without 0.5 μg of trypsin at 30° C. in 250 μl of 13 mM HEPES pH 7.0 containing 1 mM MgCl2, 0.5 mM EDTA, 0.5 mM dithiothreitol, 0.2 M NaCl and 0.5 mM benzamidine. Its Tre6P synthase activity was determined at intervals using standard assay mixtures (containing 5 mM F6P) containing no or 4 mM K phosphate pH 6.8, and samples were prepared for SDS-PAGE analysis immediately before and 48 min after addition of the trypsin.
Intact trehalose synthase was prepared as in Example 1. Kinetic assays were done at 30° C. as described in General Methods and Materials.

[2] = biological target: T2, Tre6Pase activity of the 99 kDa polypeptide (Saccharomyces cerevisiae, UniProt P31688); test: Tre6Pase activity of isolated 99 kDa polypeptide
T2 construct: the 99 kDa polypeptide isolated from intact trehalose synthase is a specific trehalose-6-phosphatase; made in house; host or cells: commercial baker's yeast (native; isolated from intact trehalose synthase on phosphocellulose)
Protocol: Intact trehalose synthase has also been fractionated on phosphocellulose in the absence of Triton, and with elution by a simple linear gradient from 0 to 0.6 M NaCl. […] This activity differed from the Tre6Pase activity of intact trehalose synthase in that the ratio of activities at 25 mM phosphate and 50 mM Hepes was between 1.5 and 3 in different experiments (cf, this ratio is 5 to 6 for intact trehalose synthase). Furthermore, during storage of the isolated 99 kDa polypeptide at 0° C., the Tre6Pase activity at 25 mM phosphate decreased and that at 50 mM Hepes increased, until the ratio was about 0.7 after 7 weeks.

[3] = biological target: T3, Tre6P synthase activity of intact trehalose synthase (Saccharomyces cerevisiae, UniProt Q00764); test: Tre6P synthase assay of intact trehalose synthase; conditions: 11 μg trypsin, 25° C., after first 30 min (26% before)
T3 construct: Intact trehalose synthase was purified from commercial baker's yeast; made in house; host or cells: commercial baker's yeast (native enzyme purified, not recombinant)

[4] = biological target: T3, Tre6P synthase activity of intact trehalose synthase; test: Tre6P synthase assay of intact trehalose synthase; conditions: 0.5 μg trypsin, 30° C., first 10 min
Protocol: as §1
as §2, with “Removal of the N-terminal 325 or so amino acids from the 123 kDa long chain of intact trehalose synthase by treatment with trypsin in vitro produces an enzyme with catalytic properties like those of the truncated enzyme purified by Londesborough & Vuorio [(1991) loc. cit.]. In” for “In”
Truncated trehalose synthase was prepared as described by Londesborough & Vuorio [(1991) loc. cit.] and contained the 57 kDa short chain and 86 and 93 kDa fragments of the long chain. Intact trehalose synthase was prepared as in Example 1. Kinetic assays were done at 30° C. as described in General Methods and Materials.

Compound | rate of hydrolysis relative to 0.5 mM trehalose-6-phosphate ([1]; 1 mM G6P, phosphate or Hepes buffer) | hydrolysis by isolated 99 kDa polypeptide [2] | loss of Tre6Pase activity ([1]; limited treatment with trypsin, 30° C.) | Tre6P synthase activity in absence of F6P and presence of 10 mM phosphate, % of standard activity [3] [%] | increase in Tre6P synthase activity measured at 4 mM phosphate [4] [fold]
O=P(O)(O)OC[C@H]1OC(O)[C@H](O)[C@@H](O)[C@@H]1O (some centres unmarked) [Transformant G6P, Glucose 6-phosphate] | less than 1% | not hydrolyzed | – | – | –
trypsin | – | – | about 50% | 73 | 4
